What was measured:
Experiment in all cases: high-throughput RNA pulldown from lysate on Ni-NTA beads; HRP: 50 mM Tris pH 8, 150 mM NaCl, 1 mM beta-mercaptoethanol, 50 ug/ml BSA, 3 ug/ml yeast RNA, 0.5% heparin; ITC and FP: Tris pH 8, 200 mM KCl, 5% glycerol; MST: 50 mM Tris pH 8, 200 mM NaCl, 1 mM DTT, BSA, heparin, 0.05% Tween 20
Conditions in all cases: tags: N-terminal His-eGFP
[1] = biological target: T1, GFP-9S library array, motif 4 ND N98Q;D124P (synthetic construct, N98Q;D124P)
T1 chain: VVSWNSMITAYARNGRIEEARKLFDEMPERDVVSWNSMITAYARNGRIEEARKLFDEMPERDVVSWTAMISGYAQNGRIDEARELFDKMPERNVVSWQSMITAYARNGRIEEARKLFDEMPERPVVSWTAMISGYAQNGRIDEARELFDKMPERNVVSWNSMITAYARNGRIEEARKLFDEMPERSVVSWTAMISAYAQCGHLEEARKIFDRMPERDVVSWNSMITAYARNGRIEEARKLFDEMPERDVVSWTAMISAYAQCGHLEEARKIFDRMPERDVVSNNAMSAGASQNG

[2] = biological target: T2, GFP-9S library array, motif 4 ND N98S (synthetic construct, N98S)
T2 chain: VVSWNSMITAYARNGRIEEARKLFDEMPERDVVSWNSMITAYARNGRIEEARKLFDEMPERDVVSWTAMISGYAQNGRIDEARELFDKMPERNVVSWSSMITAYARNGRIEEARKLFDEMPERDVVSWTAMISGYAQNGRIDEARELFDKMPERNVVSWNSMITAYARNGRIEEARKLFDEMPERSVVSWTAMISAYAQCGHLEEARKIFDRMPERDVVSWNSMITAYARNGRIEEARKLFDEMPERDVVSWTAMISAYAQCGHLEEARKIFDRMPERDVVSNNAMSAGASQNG

[3] = biological target: T3, GFP-9S library array, motif 4 ND N98T;D124R (synthetic construct, N98T;D124R)
T3 chain: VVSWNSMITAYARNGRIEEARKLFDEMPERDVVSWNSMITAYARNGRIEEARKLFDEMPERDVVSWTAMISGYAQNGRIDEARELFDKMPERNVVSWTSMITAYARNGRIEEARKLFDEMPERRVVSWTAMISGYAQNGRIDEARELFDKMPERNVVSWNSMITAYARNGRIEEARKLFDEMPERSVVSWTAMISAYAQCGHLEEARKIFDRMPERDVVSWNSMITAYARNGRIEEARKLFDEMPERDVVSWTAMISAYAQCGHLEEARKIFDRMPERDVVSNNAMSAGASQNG

[4] = biological target: T4, GFP-9S library array, motif 4 ND N98E;D124M (synthetic construct, N98E;D124M)
T4 chain: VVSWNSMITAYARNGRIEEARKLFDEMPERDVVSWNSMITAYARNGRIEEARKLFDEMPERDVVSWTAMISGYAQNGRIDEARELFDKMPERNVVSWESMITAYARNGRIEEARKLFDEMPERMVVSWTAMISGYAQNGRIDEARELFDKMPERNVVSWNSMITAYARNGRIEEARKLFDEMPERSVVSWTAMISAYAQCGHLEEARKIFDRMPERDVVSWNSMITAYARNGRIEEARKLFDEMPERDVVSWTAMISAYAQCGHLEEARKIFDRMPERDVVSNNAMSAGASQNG

[5] = biological target: T5, GFP-9S library array, motif 4 ND D124N (synthetic construct, D124N)
T5 chain: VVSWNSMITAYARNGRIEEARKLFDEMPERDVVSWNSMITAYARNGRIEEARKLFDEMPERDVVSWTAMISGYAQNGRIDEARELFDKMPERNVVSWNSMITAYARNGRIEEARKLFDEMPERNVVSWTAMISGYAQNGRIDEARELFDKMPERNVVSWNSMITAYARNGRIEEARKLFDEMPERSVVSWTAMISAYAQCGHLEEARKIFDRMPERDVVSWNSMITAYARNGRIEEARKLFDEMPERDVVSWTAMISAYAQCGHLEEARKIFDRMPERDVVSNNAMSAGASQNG

AUUAUACGUGA (ssRNA) [IR-rpoA-U]
Kd ([1]; label: 5' IRDye 800CW): 219 nM
Kd ([2]; label: 5' IRDye 800CW): 262 nM
Kd ([3]; label: 5' IRDye 800CW): 133 nM
Kd ([4]; label: 5' IRDye 800CW): 206 nM
Kd ([5]; label: 5' IRDye 800CW): 11.6 nM

AUUAGACGUGA (ssRNA) [Cy5-rpoA-G]
Kd ([1]; label: 5' Cy5): 138 nM
Kd ([2]; label: 5' Cy5): 17.2 nM
Kd ([3]; label: 5' Cy5): 120 nM
Kd ([4]; label: 5' Cy5): 136 nM
Kd ([5]; label: 5' Cy5): 178 nM

AUUAAACGUGA (ssRNA) [IR-rpoA-A]
Kd ([1]; label: 5' IRDye 800CW): 259 nM
Kd ([2]; label: 5' IRDye 800CW): 574 nM
Kd ([3]; label: 5' IRDye 800CW): 80.8 nM
Kd ([4]; label: 5' IRDye 800CW): 360 nM
Kd ([5]; label: 5' IRDye 800CW): 114 nM

AUUACACGUGA (ssRNA) [Cy5-rpoA]
Kd ([1]; label: 5' Cy5): 135 nM
Kd ([2]; label: 5' Cy5): 413 nM
Kd ([3]; label: 5' Cy5): 132 nM
Kd ([4]; label: 5' Cy5): 105 nM
Kd ([5]; label: 5' Cy5): 3.13 nM
